One assay concerns the target CD33 on HL-60 cells (UniProt P20138). The assay can be described thus: cell-based or functional assay.
The target of assay [1] is 5T4 antigen on cells (human (human cancer cell lines)) (UniProt Q13641). The experiment in a line: flow cytometry (MFI) on 5T4 expressing cells, anti-Fc FITC detection. (In general: Flow cytometry measures light scatter and fluorescence of single cells or particles in a stream.)

Drawing on patent US20180140716A1, this text covers IC50, antiproliferation (Cell Titer-Glo), HL-60 cells and fold less binding than the anti-5T4 scFvFc proteins for two substances.

Chain of UniProt Q13641 (Q13641 32-420): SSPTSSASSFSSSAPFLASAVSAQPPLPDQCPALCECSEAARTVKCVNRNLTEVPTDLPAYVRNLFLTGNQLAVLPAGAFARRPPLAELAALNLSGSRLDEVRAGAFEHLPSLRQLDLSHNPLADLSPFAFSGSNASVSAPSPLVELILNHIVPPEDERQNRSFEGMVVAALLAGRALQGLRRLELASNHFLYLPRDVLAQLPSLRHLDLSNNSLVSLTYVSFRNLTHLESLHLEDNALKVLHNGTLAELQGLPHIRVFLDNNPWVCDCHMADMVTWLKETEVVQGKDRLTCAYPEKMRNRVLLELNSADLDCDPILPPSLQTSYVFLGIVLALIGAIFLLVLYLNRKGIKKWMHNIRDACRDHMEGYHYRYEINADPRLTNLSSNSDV
Chain of UniProt P20138 (P20138 18-364 limits assumed): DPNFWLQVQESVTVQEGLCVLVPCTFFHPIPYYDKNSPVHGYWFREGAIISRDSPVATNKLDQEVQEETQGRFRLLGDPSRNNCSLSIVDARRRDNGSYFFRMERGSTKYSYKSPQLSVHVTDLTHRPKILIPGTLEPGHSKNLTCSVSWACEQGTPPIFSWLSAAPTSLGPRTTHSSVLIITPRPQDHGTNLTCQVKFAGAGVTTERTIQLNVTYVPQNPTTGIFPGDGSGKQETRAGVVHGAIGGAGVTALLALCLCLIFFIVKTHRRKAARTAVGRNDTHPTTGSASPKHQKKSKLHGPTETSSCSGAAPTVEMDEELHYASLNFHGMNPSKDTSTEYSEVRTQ

Turning to “Lintuzumab-((EG2-MI (2%)-(10 kDa PHF-BA (30%)-(AF-HPA-Ala (9%)), AF-HPA:lintuzumab about 10:1 to about 15:1 (antibody)”, the IC50, antiproliferation (Cell Titer-Glo), HL-60 cells with CD33 on HL-60 cells was determined as 0.77 nM.

Substance non-binding scFvFc fusion protein displayed a fold less binding than the anti-5T4 scFvFc proteins in assay [1] of 200 fold less.
